In assay [1] the target is T1, IGF-1 (human, UniProt P05019 49-118). Kind of assay: monovalent phage ELISA; soluble IGF-1 titrated against peptide-phage binding to immobilised IGF-1. (An ELISA detects its analyte on a solid surface through an enzyme-linked reagent.)
Assay [2] addresses T2, phage displaying human IGF-1 (phage vector pIGF-g3) (human, UniProt P05019 49-118).
T2 construct: Construct as in Dubaquie and Lowman; also called IGF-1 displaying phage; Phage IGF-1; not shown: g3 of the phage vector pIGF-g3 (M13 gene III protein)
Kind of assay: competition phage ELISA: peptide against IGF-1 phage binding to IGFBP-1 on plate. How it is done: (§1) The IGF-1 displaying phage was titered against IGF bp1 and bp3 for a 500-1000× dilution for preincubation with serial dilutions the synthesized peptides and binding protein standards for 45 minutes. Immunosorbant plates were coated with IGF binding proteins and blocked with 0.5% TWEEN®-20 detergent and PBS and washed as above. The samples were added to the plates for 20 minutes, washed and detected as above. The experimental IC50 values are in Table 5.

Assay [3] deals with T1, IGF-1. In words: displacement of 125I-IGF-1 (2 nM) from receptors on MCF-7 cells. How it is done: Cell were passaged weekly in media containing a 50/50 mix of high-glucose DMEM/ Ham's F12, with 10% fet al bovine serum and 10 mM HEPES pH 7.2. Cells were plated and grown overnight maintained at 37° C. and 5% CO₂. For IGF-1 iodination, 50 μg of IGF-1 was diluted into 200 μL of PBS and added to a tube coated with 100 μg of IODOGEN® 1,3,4,6-tetrachloro-3a-6β-diphenylglycouril) (Pierce Chemical Co.), incubated with 1 mCi of ¹²²⁵-Nal (10 μL) at room temperature for 10-15 minutes. Synthesized peptides and binding protein controls were preincubated with 2 nm ¹²⁵I IGF-1 for 40 minutes at 37° C. The samples were added to cells for 30 minutes. The cells were washed with media and lysed with 1N NaOH.

Assay [4] concerns the target T2, phage displaying human IGF-1 (phage …). In words: competition phage ELISA: peptide against IGF-1 phage binding to IGFBP-3 on plate. How it is done:
as §1

The target of assay [5] is T1, IGF-1. Kind of assay: cell-based or functional assay.

Bridge positions count the residues as written; N and C are the ends. Ends that are not written are not given here.

T1 sequence (P05019 49-118): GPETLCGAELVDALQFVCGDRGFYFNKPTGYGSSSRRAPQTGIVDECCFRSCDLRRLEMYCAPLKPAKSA
T2 sequence (P05019 49-118 limits assumed): as the sequence (P05019 49-118) above

What is called IC50 is the point on the concentration scale where inhibition reaches its midpoint. A high value points to weaker potency in that assay. For “… (from UniProt P01241 27-217) (peptide)”, the IC50 with IGF-1 [1] was found to be 209 µM.
Consider MDCLASVEALKWCMYG (synthetic peptide) [F1-2], for which the values for the IC50 (in assay [2]; with IGF-1 [3]; in assay [4]) were 15.5 µM, 15.3 µM and 9.2 µM, respectively. For the same molecule, the “IGF-1 KIRA” value in the assay with IGF-1 [5] stood at 20 µM. Besides, the “Insulin KIRA” value with IGF-1 [5] was 32.6 µM.
For FECLTSVEALRGCMYG (synthetic peptide) [F1-3], in that order: 11.7 µM, 45.7 µM, 12.8 µM, 102 µM and 66.1 µM.
For RNCFESVAALRRCMYG (disulfide 3-13, synthetic peptide; also called IGF-F1-1) [F1-1], in that order: 1.4 µM, 5.12 µM, 2.93 µM, 84.9 µM and 5.48 µM.
